Assay results reported in patent publication US20060030524A1, “Treatment of systemic lupus erythematosus by down-regulating the autoimmune response to autoantigens” (Yeda Research and Development Co. Ltd., priority 1998, published 2006).

What was measured:
histones = assay: ELISA of sera of Ab1-immunized mice for anti-histone antibodies; assay type: in vivo; conditions: mice immunized with Ab1, bled two weeks after second boost
Method: (§1) ELISA assays were conducted in 96-well Maxisorp plates (Nunc, Roskilde, Denmark), which were coated with 10 μg test antigen per ml in PBS. After washing and blocking with 1% BSA in PBS for one hour at 37° C., diluted test sera (0.1 ml per well) was added for one hour at 37° C., followed by one hour incubation with goat anti-mouse IgG Fc specific, or IgG-isotype specific secondary antibodies conjugated to alkaline phosphatase, diluted 1:5000 (Jackson, Philadelphia, Pa.). A substrate solution containing 0.6 mg/ml of p-nitrophenylphosphate (Sigma, Rehovot, Israel) in diethanolamine-H2O, pH 9.8, was added, and the plates were read at 405 nm.
(§2) For anti-DNA ELISA, a secondary antibody conjugated to horseradish peroxidase, and as substrate 1 mg/ml ABTS in 0.2 M citric acid, 0.2 M Na2HP04, and 3% H202 (all from Sigma) was used. The test antigens used were (Fab) 2 fragments of Ab2 anti-PAb-421, which were prepared as described (Harlow et al, 1988), recombinant p53, the p53 peptide epitope of PAb-421, histones or, after pre-coating with methylated BSA, calf thymus DNA (all from Sigma). All antibody titers are shown as the O. D. produced by the test sera at a dilution of 1:100. Dots represent individual sera, bars represent the median of each group.

[1] = tested on: single-stranded calf thymus DNA; assay: Anti-DNA ELISA of sera of Ab1-immunized mice; assay type: in vivo; conditions: sera of BALB/c mice immunized with the Ab1
Method: as §2

[2] = target: T1, p53 peptide epitope of PAb-421 (364-383 of SEQ ID NO:1) (Mus musculus, UniProt P02340); assay: ELISA of sera of Ab1-immunized mice for Ab3 to the p53 peptide epitope of PAb-421; assay type: in vivo
T1 construct: made in house; host or cells: chemical synthesis (Abimed AMS 422)
Method: (§3) E. coli BL21 (DE3) cells were transformed with the T7 expression vector containing mouse p53 DNA (Shohat-Foord et al, 1991). P53 was purified as described (Wolkowicz et al, 1995). All peptides, including the p53 peptide epitope of PAb-421 ([…]) (residues 364-383 of SEQ ID NO:1) were prepared using an automated synthesizer (Abimed AMS 422; Langenfeld, Germany) according to the manufacturer. Peptide purity was tested by analytical reverse phase HPLC and mass spectroscopic analysis.
ELISA assays were conducted in 96-well Maxisorp plates (Nunc, Roskilde, Denmark), which were coated with 10 μg test antigen per ml in PBS. […] A substrate solution containing 0.6 mg/ml of p-nitrophenylphosphate (Sigma, Rehovot, Israel) in diethanolamine-H2O, pH 9.8, was added, and the plates were read at 405 nm.
Because the two mouse strains differed in their Ab1 response to PAb-421, it was conceivable that they also might differ in their Ab3 response to this Ab1 antibody. The specificity of the Ab3 response was analyzed by probing test sera for antibodies to the C-terminal peptide epitope of p53 that is recognized by the inducing PAb-421 (amino acids 364-383 of SEQ ID NO:1).

recombinant p53 = target: T2, recombinant p53 (Mus musculus, UniProt P02340); assay: ELISA of sera of Ab1-immunized mice for Ab3 anti-p53 antibodies; assay type: in vivo
T2 construct: made in house; host or cells: E. coli BL21 (DE3)
Method: as §3, §1
To test whether immunization to Ab1 could induce Ab3, immunized mice were assayed for antibodies to p53. […] However, Ab1 antibodies PAb-246 and PAb-421 induced a stronger Ab3 anti-p53 response in the BALB/c strain than they did in the C57BL/6 strain.

[3] = tested on: Ab2 of immunized C57BL/6 mice cross-reactive to PAb-246 and PAb-421; assay: Absorption of Ab2 cross-reactivity by preincubation with anti-p53 antibodies; assay type: binding; conditions: sera of immunized C57BL/6 mice preincubated with the antibody
Method: FIG. 2 is a graph showing cross-reactivity of C57BL/6 mouse Ab2 to PAb-246 and PAb-421. […] The mean percent inhibition (+SD) of the reactivity to PAb-246 or PAb-421 by preincubation is shown.
The Ab2 cross-reactivity of the C57BL/6 mice seemed to be limited to PAb-246 and PAb-421. To confirm the Ab2 cross-reactivity between PAb-246 and PAb-421, tests were conducted to determine whether preincubation with either of the anti-p53 antibodies could absorb out the cross-reactivity. […] The mean percent inhibition (+SD) of the reactivity to PAb-246 or PAb-421 by preincubation is shown.

[4] = tested on: (Fab)2 fragments of the Ab1 anti-p53 antibodies; assay: ELISA of sera of Ab1-immunized mice for Ab2 anti-idiotypic antibodies; assay type: in vivo
Method: as §1
For anti-DNA ELISA, a secondary antibody conjugated to horseradish peroxidase, and as substrate 1 mg/ml ABTS in 0.2 M citric acid, 0.2 M Na2HP04, and 3% H202 (all from Sigma) was used. The test antigens used were (Fab) 2 fragments of Ab2 anti-PAb-421, which were prepared as described (Harlow et al, 1988), recombinant p53, the p53 peptide epitope of PAb-421, histones or, after pre-coating with methylated BSA, calf thymus DNA (all from Sigma). All antibody titers are shown as the O. D. produced by the test sera at a dilution of 1:100. […]
To learn whether both strains of mice responded to the Ab1 immunization by making Ab2 anti-idiotypic antibodies, the reactivity of their sera to the (Fab)2 fragment of the Ab1 anti-p53 antibodies was determined.

[5] = tested on: p53-responsive element oligonucleotide; assay: Band shift assay of sera of Ab1-immunized mice; assay type: in vivo; conditions: sera of BALB/c mice immunized to the Ab1
BALB/c and C57BL/6 mice = assay: Induction of SLE-like disease by Ab1 immunization (proteinuria, histology, leukocyte counts); assay type: in vivo
From the text: Paraffin sections of tissue samples were either stained with hematoxylin and eosin, or immunostained with a peroxidase-labeled anti-mouse-IgG antibody (Jackson, Philadelphia, Pa.) and DAB (Sigma) according to the manufacturer's instructions.
Proteinuria was detected with Albustix strips (Bayer, Slough, UK). Leukocytes were counted from heparinized blood following 10-fold dilution in 1% acetic acid.

[6] = tested on: native, histone-free DNA of Crithidia luciliae; assay: Crithidia luciliae assay of sera of Ab1-immunized mice; assay type: in vivo; conditions: sera of BALB/c mice immunized to the Ab1
Method: Slides with Crithidia were purchased from Immco (Buffalo, N.Y.) and incubated with the test sera according to the manufacturer's protocol.
Test sera were then examined for binding to DNA using the Crithidia luciliae assay, which detects antibodies—to native, histone-free DNA exposed at the base of the Crithidia flagellum. Both BALB/c and C57BL/6 mice immunized to […] or PAb-248 were negative for anti-DNA antibodies in the Crithidia assay, as were C57BL/6 mice immunized to PAb-421. […] The finding of positive reactivity in the Crithidia assay correlates with the clinical disease seen in the BALB/c mice. The Crithidia luciliae assay is used clinically for its diagnostic specificity for lupus in humans (Aarden et al, 1975).

T2 sequence (P02340 whole entry): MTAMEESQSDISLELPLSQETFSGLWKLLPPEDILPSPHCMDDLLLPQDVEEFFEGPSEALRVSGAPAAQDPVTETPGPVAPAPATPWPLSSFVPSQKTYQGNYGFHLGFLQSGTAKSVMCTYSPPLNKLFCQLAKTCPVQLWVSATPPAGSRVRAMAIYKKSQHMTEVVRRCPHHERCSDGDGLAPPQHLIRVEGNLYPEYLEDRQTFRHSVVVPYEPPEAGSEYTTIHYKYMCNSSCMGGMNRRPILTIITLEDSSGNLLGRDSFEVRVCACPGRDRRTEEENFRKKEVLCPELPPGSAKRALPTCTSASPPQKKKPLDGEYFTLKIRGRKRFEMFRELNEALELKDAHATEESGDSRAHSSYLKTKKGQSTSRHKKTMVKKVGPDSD
T1 sequence (P02340 364-383 limits assumed): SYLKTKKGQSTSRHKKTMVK

B1: PAb-421: monoclonal antibody (Ab1) against the C-terminal DNA-binding domain of murine p53; VH SEQ ID NO:2, VL SEQ ID NO:3 (antibody, listed as Mus sp., V domains shown)
VH: QVKLQESGAELVRSGASVKLSCTASGFNIKDYYMHWVKQRPEQGLEWIGWIDPENGDTEYAPKFQGKATMTADTSSNTAYLQLSSLASEDTAVYYCNFYGDALDYWGQGTTVTVSS
VL: DIQLTQSPLTLSVTIGQPASISCKSSQSLLDSDGKTYLNWLLQRPGQSPKRLIYLVSKLDSGVPDRFTGSGSGTDFTLKINRVEAEDLGVYYCWQGTHSPLTFGAGTKLK
modifications: BINDING (26)..(35) Complementary Determining Region; BINDING (24)..(39) Complementary Determining Region
B1 was tested, and the “mice that developed significant titers of anti-histone antibodies” value (histones) was “About 30%”, the “anti-DNA reactivity to single stranded calf thymus DNA (FIG. 3)” value [1] was “High anti-DNA reactivity” and the “Ab3 antibodies to the p53 peptide epitope of PAb-421 (FIG. 5)” value ([2]; BALB/c mice) was “made antibodies to the peptide epitope of PAb-421”. For the same molecule, the “Ab3 antibodies to the p53 peptide epitope of PAb-421 (FIG. 5)” value ([2]; C57BL/6 mice) was “did not make antibodies to the C-terminal p53 peptide”, the “induction of Ab3 anti-p53 antibodies (FIG. 4A)” value (recombinant p53; BALB/c mice) was “make anti-p53 antibodies” and the “induction of Ab3 anti-p53 antibodies (FIG. 4A)” value (recombinant p53; C57BL/6 mice) was “make anti-p53 antibodies”. The “absorption of Ab2 cross-reactivity between PAb-246 and PAb-421 by preincubation (FIG. 2)” value [3] was “absorbed out significantly”, the “Ab2 anti-idiotypic response, specificity (FIG. 1)” value ([4]; BALB/c mice) was “made antibodies specific to PAb-421” and the “Ab2 anti-idiotypic response, specificity (FIG. 1)” value ([4]; C57BL/6 mice) was “cross-reacted to both PAb-246 and PAb-421”. For the same molecule, the “anti-DNA Ab2 to the p53-responsive element (band shift)” value [5] was “did not make such anti-DNA antibodies”, the “immunized mice that exhibited proteinuria” value (BALB/c and C57BL/6 mice; 80 BALB/c mice immunized with Ab1) was “about 95%” and the “development of lupus after Ab1 immunization” value (BALB/c and C57BL/6 mice; BALB/c mice) was “develop a lupus-like disease”. The “mice leukopenic (<4000 leukocytes per ml) and lymphopenic (<1200 lymphocyte per ml)” value (BALB/c and C57BL/6 mice; BALB/c mice immunized with Ab1) was “Seven out of ten”, the “development of lupus after Ab1 immunization” value (BALB/c and C57BL/6 mice; C57BL/6 mice) was “did not develop disease” and the “anti-DNA antibodies in the Crithidia assay” value [6] was “produced anti-DNA antibodies detectable by the Crithidia assay”.
